Data on 1 molecule can be found in doi:10.1101/2023.04.17.537198, “Bitesize bundles F-actin and influences actin remodeling in syncytial Drosophila embryo development” (bioRxiv, 2025).

Assay [1] deals with T1, Rabbit skeletal muscle actin, polymerised (F-actin) (rabbit, UniProt P68135 1-377). The experiment in a line: cell-based or functional assay.
Assay [2] addresses T1, Rabbit skeletal muscle actin, …. The experiment in a line: co-sedimentation; high-speed pelleting: 0.5 uM BtszB-CT with 0, 0.1, 0.25, 0.5, 1, 2, 4 uM F-actin, 30 min at room temperature, 316,000 x g for 20 min at 25°C; supernatant and pellet on Coomassie gels, densitometry; BtszB-CT pelleted without F-actin subtracted; fit to a Hill equation (cooperative binding model). The settings on record: both partners purified.

B1: C-terminal fragment of Bitesize isoform B (BtszB-CT) (domain or fragment)
chain: VKGQVEFAMQYNYKLSALEVHVVRCKDLAAVDAKRNRSDPYVKVYLLPDKSKAGKRKTKVKKHTLNPIFDETMRFHTPISSLESRTLWLTVWHSDMFGRNDFLGEVSVNLQGRLFDNPQSQWYLLQERSEPFDEVATYRGDIVVGLKYIPPENIKSSFFSRGSSITGSSSNLRKFGGSIKSVASKSERTSKGGQLHVLVKEAKHLSPIKANGTCDAFCKSYLLPDRTRSSKQKTPVVKRTLHPSWNYTFVYEDVSLEELSERALELTVWDHDRLASNEFVGGIRFSLGTGRSYGRQVEWMDATGKELSLWQNMLDRPNFWVEGSLVLRSSLDGIRANLP
With B1, the “TIRF microscopy bundling assay: filament/bundle fluorescence intensity at FWHM, normalised to the mean of the control reaction (2 uM F-actin), with 1 uM BtszB-CT” value in assay [1] was 3.4 fold of the control reaction (2 uM F-actin). Besides, in assay [2], binding was put at a Kd of 450 nM.
